Test results as given in PMC3291655, “LEDGF/p75-Independent HIV-1 Replication Demonstrates a Role for HRP-2 and Remains Sensitive to Inhibition by LEDGINs” (PLoS Pathogens, 2012).

Key:
[1] = molecular target: T1, MBP-LEDGF/p75(325-530), maltose binding protein fusion of the C-terminal end of LEDGF/p75 (human, UniProt O75475-1 325-530); test: AlphaScreen or HTRF; IN-His6 titrated (2-fold dilutions from 500 to 1.9 nM) against 10 nM MBP fusion; anti-MBP donor beads and Ni2+-chelate acceptor beads; 25 mM Tris-HCl pH 7.4, 150 mM NaCl, 1 mM MgCl2, 0.1% Tween-20, 0.1% BSA; 1 h at 4°C, then 1 h at RT with beads; apparent KD, one-site specific binding with ligand depletion; details: both partners purified
T1 construct: also called MBP-LEDGF_(325–530); LEDGF_(325–530); source: E. coli BL21(DE3), purified (amylose resin)
T1 sequence (looked up): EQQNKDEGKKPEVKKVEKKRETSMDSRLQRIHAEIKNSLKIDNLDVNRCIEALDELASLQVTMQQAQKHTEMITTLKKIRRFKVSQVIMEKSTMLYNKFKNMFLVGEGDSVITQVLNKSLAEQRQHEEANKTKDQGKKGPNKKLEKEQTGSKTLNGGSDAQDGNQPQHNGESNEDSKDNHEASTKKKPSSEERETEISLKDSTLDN

[2] = molecular target: T2, MBP-HRP-2(448-670), maltose binding protein fusion of the C-terminal part of Hepatoma-derived growth factor … (human, UniProt Q7Z4V5-2 448-670); test: as above; details: both partners purified
T2 construct: Hepatoma-derived growth factor related protein 2 (HRP-2), human, C-terminal part aa 448-670, which holds the IBD (aa 470-593); the range called the C-terminal end stops at 670, which fits the 670-residue isoform; amplified from p3xFlagHRP-2 and ligated into pMAL-c2E; source: E. coli, purified (amylose resin)
T2 sequence (looked up): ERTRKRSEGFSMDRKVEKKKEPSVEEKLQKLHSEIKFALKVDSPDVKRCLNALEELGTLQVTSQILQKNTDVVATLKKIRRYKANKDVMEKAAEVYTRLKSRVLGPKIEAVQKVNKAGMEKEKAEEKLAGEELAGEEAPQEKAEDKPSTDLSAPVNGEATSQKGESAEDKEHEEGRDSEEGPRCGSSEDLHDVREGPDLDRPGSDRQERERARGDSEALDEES

B1: HIV-1 integrase with a C-terminal His6 tag (enzyme)
chain: FLDGIDKAQEEHEKYHSNWRAMASDFNLPPVVAKEIVASCDKCQLKGEAMHGQVDCSPGIWQLDCTHLEGKVILVAVHVASGYIEAEVIPAETGQETAYFLLKLAGRWPVKTVHTDNGSNFTSTTVKAACWWAGIKQEFGIPYNPQSQGVIESMNKELKKIIGQVRDQAEHLKTAVQMAVFIHNFKRKGGIGGYSAGERIVDIIATDIQTKELQKQITKIQNFRVYYRDSRDPVWKGPAKLLWKGEGAVVIQDNSDIKVVPRRKAKIIRDYGKQMAGDDCVASRQDED
Work on B1 yielded a Kd [1] of 0.0066 µM and a Kd [2] of 0.0898 µM.
